# Assay results taken from PMC7613929 (Nature microbiology, 2022).
# B1: E. coli FtsN cytoplasmic tail peptide, residues 1-32 (EcFtsN^1-32) [E. coli] / E. coli FtsA (EcFtsA), full length [E. coli] (parent complex)
# chain 1: MAQRDYVRRSQPAPSRRKKSTSRKKQRNLPAV
# chain 2: MIKATDRKLVVGLEIGTAKVAALVGEVLPDGMVNIIGVGSCPSRGMDKGGVNDLESVVKCVQRAIDQAELMADCQISSVYLALSGKHISCQNEIGMVPISEEEVTQEDVENVVHTAKSVRVRDEHRVLHVIPQEYAIDYQEGIKNPVGLSGVRMQAKVHLITCHNDMAKNIVKAVERCGLKVDQLIFAGLASSYSVLTEDERELGVCVVDIGGGTMDIAVYTGGALRHTKVIPYAGNVVTSDIAYAFGTPPSDAEAIKVRHGCALGSIVGKDESVEVPSVGGRPPRSLQRQTLAEVIEPRYTELLNLVNEEILQLQEKLRQQGVKHHLAAGIVLTGGAAQIEGLAACAQRVFHTQVRIGAPLNITGLTDYAQEPYYSTAVGLLHYGKESHLNGEAEVEKRVTASVGSWIKRLNSWLRKEF
# Variants of: B1
# Assay: SPR; FtsA immobilised on CM5 chip via amide coupling; peptide 1:2 dilution series from 20 μM; maximum response fixed during fitting (asterisk)
row,Variant,Kd [µM]
1,"chain 1 R16A, chain 1 R17A, chain 1 K18S, chain 1 K19A",~166
2,"chain 1 R23A, chain 1 K24S, chain 1 K25A",~80.6
